The labels stand for the following.
T1: polypeptide GC3pep of human GPC3 (Ala524-Lys563) (human)
T1 construct: Residues Ala524-Lys563 of human GPC3 (NCBI NM_004484.3); coated on the ELISA plate; also called membrane proximal polypeptide GC3pep
T1 peptide: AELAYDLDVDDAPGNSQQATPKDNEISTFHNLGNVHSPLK

B1: F1.83.6 human-murine chimeric antibody (antibody, human IgG1, kappa, V domains shown)
VH: QVQLQQSGPELVKPGASVKISCKASGYAFSSSWMNWVKQRPGKGLEWIGRIYPGDGDTNYNGRFKGKATLTVDKSSSTAYMQLSSLTSEDSAVYFCARGGVFTMALDHWGQGTTLTVSS
VL: DIQMTQSPSSLSASLGGKVTITCKASQDINKYIAWYQHKPGKGPRLLIHYTSTLQPGIPSRFSGSGSGRDYSFSISNLEPEDIATYYCLQYDNLFTFGGGTKLEIKR
notes: Chimeric
B2: F1.118.4 human-murine chimeric antibody (antibody, human IgG1, kappa, V domains shown)
VH: QVQLQQSGAELAKPGASVKLSCKASGYSFTSYWIHWVKQRPGQGLEWIGYINPSSGYTKYNQKFKDKATLTADKSSSTAYMQLSSLTYEDSAVYYCARFGSSSFYFDYWGQGTTLTVSS
VL: DIVLTQSPASLAVSLGQRATISCRASQSVSSSSYSYMHWYQQKPGQPPKLLIKYASNLDSGVPARFSGSGSGTDFTLNIHPVEEEDTATYYCQHSWEIPAFGGGTKLEIKR
notes: Chimeric
B3: F1.9.19 human-murine chimeric antibody (antibody, human IgG1, kappa, V domains shown)
VH: DVQLQESGPGLVKPSQSLSLTCSVTGYSITSGYYWNWIRQFPGNRLEWMAYISYDGINNYNPSLKNRISIARDTSTNQFFLKLNSVTSEDTATYYCATTTEVALFDHWGQGTTLTVSS
VL: DVLLTQTPLSLPVSLGDQASISCRSSQNIVHGNGNTYLEWFLQKPGQSPKLLIYKVSNRFSGVPDRFSGSGSGTDFTLKISRVEAEDLGLYYCFQASHVPWTFGGGTKLEIKR
notes: Chimeric
B4: F1.115.8 human-murine chimeric antibody (antibody, human IgG1, kappa, V domains shown)
VH: EVQLQQSGPELVKPGASVKMSCKASGYTFTEYYMHWVKQSHGKSLEWIGYIYPNNGGNGYNQKFKGKATLTVDKSSSTAYMGLRSLTSEDSAVYYCVRGYYSNWYFDVWGTGTTVTVSS
VL: DVLMTQTPLSLPVSLGDQASISCRSSQSIVHSNGKTYLEWYLQKPGQSPKLLIYKVSNRFSGVPDRFSGSGSGTDFTLKISRVEAEDLGVYYCFQGSHVPFTFGSGTKLEIKR
notes: Chimeric
B5: F1.110.24 human-murine chimeric antibody (antibody, human IgG1, kappa, V domains shown)
VH: EVKLVESGGGLVQPGGSLKLSCAASGFTFSDFYMYWVRQTPEKRLEWVAFISNGGGSTYYPDTVKGRFTISRDNVKNTLYLQMSRLKSEDTAMYYCARPDTSWFAYWGQGSLVTVSA
VL: DIQMTQTTSSLSASLGDRVTISCRASQDIDNYLNWYQQKPDGTVKVLISYTSRLHSGVPSRFSGSGSGTDYSLTISNLEQEDIATYFCQQGNTLPWTFGGGTKLEIKR
notes: Chimeric
B6: F1.153.1 human-murine chimeric antibody (antibody, human IgG1, kappa, V domains shown)
VH: QIQLVQSGPELKKPGETVKISCKASGYTFTTAGMQWVQKMPGKGFKWIGWINTHSGEPQYAEDFKGRFAFSLETSASTAYLQISNLKNEDTATYFCARSFYYHGSSFFYFDYWGQGTTLTVSS
VL: DIVMTQSQKFMSTTVGDRVSITCKASQNVGTAVAWYQQKPGQSPKLLIYSASNRYTGVPDRFTGSGSGADFTLTISNMQSEDLADYFCQQYSRYPLTFGAGTKLELKR
notes: Chimeric
B7: F1.73.9 human-murine chimeric antibody (antibody, human IgG1, kappa, V domains shown)
VH: QVQLKQSGAELVRPGASVKLSCKASGYTFTDYYINWVKQRPGQGLEWIARIYPGSGNTYYNEKFKGKATLTAEKSSSTAYMQFSSLTSEDSAVYFCACSTYYTMDYWGQGTSVTVSS
VL: QIVLTQSPAIMSASLGERVTMTCTASSGVSSSYLHWYQQKPGSSPKLWIYTTSNLASGVPARFSGSGSGTSYSLTISSMEAEDAATYYCHQYHRSPYTFGGGTKLEIKR
notes: Chimeric
B8: F1.111.11 human-murine chimeric antibody (antibody, human IgG1, kappa, V domains shown)
VH: EVQLQQSGPELVKPGASVKISCKASGYTFTDYYMNWVKQSHGKSLEWIGDIYPNNGDTTYNQRFKGKATLTVDKSSSTAYMELRSLASEDSAVYYCACPYNNPFGYWGQGTLVTVSA
VL: DVVMTQTPLSLPVSLGDQASISCRSSQSLVHSNGNTYLHWYLQKPGQSPKLLIYKVSNRFSGVPDRFSGSGSGTDFTLKISRVEAEDLGVYFCSQSTHVPWTFGGGTKLEIKR
notes: Chimeric
B9: F4.26.1 human-murine chimeric antibody (antibody, human IgG1, kappa, V domains shown)
VH: QVQLKQSGPGLVQPSQSLSITCTVSGFSLTSYGVHWVRQSPGKGLEWLGVIWSSGNTDYNAVLISRLSIKKDDSKSQVFFKMNSPQVDDSAIYYCGRNGGWLLRGFMDFWGQGTSVTVSS
VL: DVVMTQTPLSLPVSLGDQASISCRSSQSLLHSNGNTYLHWYLQRSGQSPNLLIYKVSNRFSGVPDRFSGGGSGTDFTLKISRVEAEDLGIYFCSQSTHVPWTFGGGTKLEIKR
notes: Chimeric
B10: F1.62.9 human-murine chimeric antibody (antibody, human IgG1, kappa, V domains shown)
VH: QVQLQQSDAELVKPGASVKISCKVSGYIFTDHTIHWMKQRPEQGLEWIGYIYPRDGSIKYNENFKGKATLTADKSSSATYMQLNSLTSEDSAVYFCARPIYYDYAYYFDYWGQGTTLTVSS
VL: DVVMTQSPLSLPVSLGDQASISCRSRQSLVHSNGNTYLHWYLQKPGQSPKVLIYKVSNRFSGVPDRFSGSGSGTDFTLKISRVEAEDLGVYFCSQSTHVPYTFGGGTKLEIKR
notes: Chimeric
B11: F1.78.24 human-murine chimeric antibody (antibody, human IgG1, kappa, V domains shown)
VH: QVQLQQSGAELVKPGASVKMSCKASGYTFTTYPIEWMKQNHGKSLEWIGNFHPYNDDTNYNVKFKGKATLTVEKSSSTVYLELSRLTSDDSALYYCARRREYYGSFDVWGTGTTVTVSS
VL: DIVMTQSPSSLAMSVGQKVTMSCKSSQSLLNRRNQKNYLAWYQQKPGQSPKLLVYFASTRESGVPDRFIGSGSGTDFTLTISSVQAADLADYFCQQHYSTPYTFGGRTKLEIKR
notes: Chimeric
B12: F4.18.4 human-murine chimeric antibody (antibody, human IgG1, kappa, V domains shown)
VH: QVQLHQSGAEMAKPGASVNLSCKTSGFTFTDYGISWVKQRTRQGLEWIGDIYPRHINIYYNEKFKDKATLTADRSSSTAYMELRSMTSEDSAVYFCARRGTTGRGALDYWGQGTSLTVSS
VL: DILLTQSPAILSVSPGERVSFSCRASQSIGTSIHWYQQRTNGSPRLLIKYAFESISGIPSRFGGSGSRTDFTLTINSVESEDIADYYCQQTYNWPYTFGGGTKLEIKR
notes: Chimeric
B13: F1.42.8 human-murine chimeric antibody (antibody, human IgG1, kappa, V domains shown)
VH: HVQLQQPGAELVKPGASVKLSCKASGYTFTSYWMHWVRQRPGQGLEWIEMIHPNSGSTNYNEKFKSKATLTVDKSSSTAYMQLSSLTSEDSAVYYCARGNYNSSLYAMDYWGQGTSVTVSS
VL: DIQMTQTTSSLSASLGDRVTISCSASQGISNYLNWYQQKPDGTVKLLIYYASNLHSGVPSRFSGSGSGTAYSLTISNLEPEDIATYYCQQYSILPYTFGGGTKLEIKR
notes: Chimeric
B14: F4.13.7 human-murine chimeric antibody (antibody, human IgG1, kappa, V domains shown)
VH: QVQLQQPGAELVKPGASVKLSCKASGYTFTNNWVHWVKQRPGQGLEWTGMIHPDSGSTIYNEKFQSKATLTVDKSSSTAYMQLSSLTSEDSAVYYCARGYYDSSSYYAMDYWGQGTSVTVSS
VL: NIQMTQTTSSLSASLGDRVTISCSASQGIFNYLNWYQQKPDGTVKLLIYYTSSLHSGVPSRFSGSGSGTDYSLTISNLEPEDIATYYCQQYSKLPWTFGGGTKLEIKR
notes: Chimeric
B15: F1.57.21 human-murine chimeric antibody (antibody, human IgG1, kappa, V domains shown)
VH: QVQLQQSGAELARPGASVKLSCKASGYTFTSYGISWVKQITGQGLEWIGEIYPRSESTYYNEKFKGKATLTADKSSSTAYMELRSLTSEDSAVYFCARDYGNIYSFAYWGQGTLVTVSA
VL: DIQMTQSPASLSASVGETVTITCRTSENIYSYLAWYQQKQGKSPQLLVYNAKTLAEGVPSRFSGSGSGTQFSLKINSLQPEDFGSYYCQHHYGTPLTFGAGTKLELKR
notes: Chimeric
B16: F1.145.22 human-murine chimeric antibody (antibody, human IgG1, kappa, V domains shown)
VH: QVQLQQSGTDLARPGASVKLSCKASGYTFTSFGISWVKQRTGQGLEWIGEIYPRSGSPYYNEKFTGKATLTADKSSSTAYMELRSLTSEDSAVYFCAKDFGSSYVFDYWGQGTALTVSS
VL: DIQMTQSPASLSASVGETVTITCRASENIYSYLTWYQQKQGKSPQLLVYNAKTLAEGVPSRFSGSGSGTQFSLKINSLQPEDFGTYYCQHHYGTPPTFGTGTKLDLKR
notes: Chimeric
B17: F1.136.7 human-murine chimeric antibody (antibody, human IgG1, kappa, V domains shown)
VH: EVQLQQSGPVMVKPGPSVKISCQTSGFTFTDYYIHWVKQSHGKSLEWIGLVFPYDGGTNYNQKFKDKATLTLDTSSSTAYMELNSLTSEDSAVYYCARAGGFSYALNYWGQGTSVTVSS
VL: DIQMTQSPSSLSASLGGKVTITCKASQDINNYIAWYQHKPGKGPRLLIHFTSTLQPGIPSRFSGSGSGRDYSFSISNLEPEDIATYYCLQYDNLLLTFGAGTKLELKR
notes: Chimeric
B18: F1.3.9 human-murine chimeric antibody (antibody, human IgG1, kappa, V domains shown)
VH: QVQLQQPGTELVKPGASVKLSCKASGYTFTSYWIHWVKQRPGQGLEWIGNINPPNAGTNYNEKFKSKATLTVDKSSSTAYMQLSSLTSEDSAVYYCARGRWLLHDYWGQGTTLTVSS
VL: DIQMTQSPASLSISVGETVTITCRASENIYSNLAWYQQKQGKSPQLLVYGTKNLAEGVPSRFSGSGSGTQYSLKINSLQSEDFGNYYCQHFWGTPYTFGGGTKLEILR
notes: Chimeric
B19: F1.92.17 human-murine chimeric antibody (antibody, human IgG1, kappa, V domains shown)
VH: EVQLQQSGPELVKPGASVKMSCKASGYTFTDYNMHWVRQSHGKSLEWIGYINPNNGDTIYNQNFKGKATLTVNKSSSTAYMELRSLTSEDSAVYYCSRTITYYYSMDYWGPGTSVTVSS
VL: QIVLTQSPALMSASPGEKVTMTCSASSSVSYMYWYQQKPRSSPKPWIYLTSNLASGVPARFSGSGSGTSYSLTISSMEAEDAATYYCQQWSSNPLTFGAGTKLELKR
notes: Chimeric

19 molecules from US20260116991A1 (HAINAN SIMCERE ZAIMING PHARMACEUTICAL, published 2026) can be followed below.

T2 sequence (Q8CFZ4 25-558 limits assumed): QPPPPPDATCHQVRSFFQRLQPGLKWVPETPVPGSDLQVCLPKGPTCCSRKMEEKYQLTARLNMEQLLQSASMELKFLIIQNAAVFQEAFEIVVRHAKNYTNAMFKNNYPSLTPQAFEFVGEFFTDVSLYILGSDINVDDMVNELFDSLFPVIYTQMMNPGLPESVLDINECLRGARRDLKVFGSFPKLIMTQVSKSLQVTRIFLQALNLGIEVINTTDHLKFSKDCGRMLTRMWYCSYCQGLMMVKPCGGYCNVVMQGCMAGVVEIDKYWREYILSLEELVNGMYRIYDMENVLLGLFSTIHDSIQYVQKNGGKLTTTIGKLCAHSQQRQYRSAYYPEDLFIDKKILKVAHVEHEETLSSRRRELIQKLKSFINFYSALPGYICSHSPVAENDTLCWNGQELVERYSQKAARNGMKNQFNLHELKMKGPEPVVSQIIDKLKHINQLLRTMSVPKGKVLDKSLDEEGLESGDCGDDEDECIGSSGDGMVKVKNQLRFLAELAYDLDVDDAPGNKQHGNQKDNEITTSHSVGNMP

The target of the first experiment is T1, polypeptide GC3pep of human GPC3 …. Description: ELISA, coated peptide. Background: An ELISA detects its analyte on a solid surface through an enzyme-linked reagent.
With B1, the binding result is on record as “no binding (tested: 100 nM)”.
Still for that read-out and setting: to B2 belongs “no binding (tested: 100 nM)”.
On the same count and under the same terms, to B3 belongs “no binding (tested: 100 nM)”; to B4, “no binding (tested: 100 nM)”; to B5, “no binding (tested: 100 nM)”.
The same measure, in the same setting: to B6 belongs “no binding (tested: 100 nM)”; to B7, “no binding (tested: 100 nM)”; to B8, “no binding (tested: 100 nM)”.
On to B9, for which the binding result is recorded as “no binding (tested: 100 nM)”.
On the same count and under the same terms, next, B10: “no binding (tested: 100 nM)”; B11: “no binding (tested: 100 nM)”; B12: “no binding (tested: 100 nM)”.
The same measure, in the same setting: to B13 belongs “no binding (tested: 100 nM)”.
For B14, the binding result is on record as “no binding (tested: 100 nM)”.
The same measure, in the same setting: to B15 belongs “no binding (tested: 100 nM)”; to B16, “no binding (tested: 100 nM)”.
Regarding B17, the binding result is “no binding (tested: 100 nM)”.
Same read-out and setting: next, B18: “no binding (tested: 100 nM)”; B19: “no binding (tested: 100 nM)”.

The next experiment addresses T2, murine GPC3-His protein (Sino Biological, Cat. No. 50989-M08B) (murine, UniProt Q8CFZ4 25-558).
T2 construct: Bought protein; also called murine GPC3 protein; mouse GPC3-his protein; not shown: His tag
Description: ELISA, coated antigen.
For B2, the binding result is “no binding (tested: 100 nM)”.
On the same count and under the same terms, next, B3: “no binding (tested: 100 nM)”; B6: “no binding (tested: 100 nM)”.
